Measured values as given in patent US20240036044A1.
pKd: −log10 of the molar value.

Molecular target: recombinant SARS-CoV-2 Spike protein antigen (Z03501, Genscript) (SARS-CoV-2) (UniProt P0DTC2)

Substance “Monoclonal antibody against the SARS-CoV-2 Spike protein (A02038, Genscript)” has a pKd of 8.62, a koff of 0.000603 s⁻¹ and a kon of 252000 M⁻¹ s⁻¹.
